Measurements from PMC6582406 (Nucleic Acids Research, 2019).

Target: the molecule itself
Experiment: SEC

B1: EBOV VP35 fused with maltose-binding protein at its N-terminal (MBP–VP35) (natural protein)
chain: MTTRTKGRGHTAATTQNDRMPGPELSGWISEQLMTGRIPVSDIFCDIENNPGLCYASQMQQTKPNPKTRNSQTQTDPICNHSFEEVVQTLASLATVVQQQTIASESLEQRITSLENGLKPVYDMAKTISSLNRVCAEMVAKYDLLVMTTGRATATAAATEAYWAEHGQPPPGPSLYEESAIRGKIESRDETVPQSVREAFNNLNSTTSLTEENFGKPDISAKDLRNIMYDHLPGFGTAFHQLVQVICKLGKDSNSLDIIHAEFQASLAEGDSPQCALIQITKRVPIFQDAAPPVIHIRSRGDIPRACQKSLRPVPPSPKIDRGWVCVFQLQDGKTLGLKI
binding result: binds
